Key:
[1] = target: purified interference factor(s) from serum of Donor A; assay: SPR, interference factor on CM5 chip
[2] = target: purified interference factor(s) from serum of Donor B; assay: SPR, interference factor on CM5 chip
[3] = target: monoclonal antibody 21-4-3; assay: SPR, 21-4-3 captured via anti-mouse IgG, 500 nM
[4] = target: purified interference factor(s) from serum of Donor C; assay: SPR, interference factor on CM5 chip

Sequence of monoclonal antibody 21-4-3 (VH, as listed by the source, chain 1 of 2): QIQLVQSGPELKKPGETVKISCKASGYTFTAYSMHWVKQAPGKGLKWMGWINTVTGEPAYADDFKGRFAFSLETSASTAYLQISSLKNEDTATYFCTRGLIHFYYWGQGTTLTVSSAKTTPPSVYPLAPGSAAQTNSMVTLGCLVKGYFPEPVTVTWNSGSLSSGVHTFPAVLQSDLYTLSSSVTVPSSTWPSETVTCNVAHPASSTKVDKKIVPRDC
Sequence of monoclonal antibody 21-4-3 (VL, as listed by the source, chain 2 of 2): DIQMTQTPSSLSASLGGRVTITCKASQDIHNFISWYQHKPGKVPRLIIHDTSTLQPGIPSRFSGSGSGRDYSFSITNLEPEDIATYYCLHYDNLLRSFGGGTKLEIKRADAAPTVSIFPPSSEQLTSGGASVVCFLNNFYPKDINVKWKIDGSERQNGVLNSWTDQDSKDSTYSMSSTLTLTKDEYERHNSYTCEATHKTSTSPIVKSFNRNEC

Binder	binding as % of Reference Sequence (=100%) [1]	binding as % of Reference Sequence (=100%) [2]	binding as % of Reference Sequence (=100%) [3]	binding as % of Reference Sequence (=100%) [4]
Nanobody or Nanobody construct of SEQ ID NO: 49 (VHH) VHH: EVQLLESGGGLVQPGGSLRLSCAASGLPFSTKSMGWFRQAPGKGREFVSRISPGGTSRYYGDFVKGRFTISRDNSKNTLYLQMNSLRAEDTAVYYCASGERSTYIGSNYYRTNEYDYWGQGTLVTVSS	0%	–	4%	–
Nanobody or Nanobody construct of SEQ ID NO: 45 (VHH) VHH: EVQLVESGGGLVQAGGSLRLSCAASRSIGRLDRMGWYRHRTGEPRELVATITGGSSINYGDFVKGRFTISIDNAKNTVYLQMNNLKPEDTAVYYCNFNKYVTSRDTWGQGTQVTVSS	0%	–	22%	–
Nanobody or Nanobody construct of SEQ ID NO: 67 (VHH) VHH: EVQLVESGGGLVQPGGSLRLSCAASRSIGRLDRMGWYRHRPGEPRELVATITGGSSINYGDSVKGRFTISIDNSKNTVYLQMNSLKPEDTAVYYCNFNKYVTSRDTWGQGTLVTVSS	102%	117%	101%	96%
Nanobody or Nanobody construct of SEQ ID NO: 89 (VHH) VHH: EVQLVESGGGSVQAGGSLRLSCAASRSIGRLDRMGWYRHRPGEPRELVATITGGSSINYGDSVKGRFTISIDNSKNTVYLQMNSLRPEDTAVYYCNFNKYVTSRDTWGQGTLVQVGG	14%	5%	2%	17%
Nanobody or Nanobody construct of SEQ ID NO: 87 (VHH) VHH: EVQLVESGGGSVQPGGSLRLSCAASRSIGRLDRMGWYRHRPGEPRELVATITGGSSINYGDSVKGRFTISIDNSKNTVYLQMNSLRPEDTAVYYCNFNKYVTSRDTWGQGTLVTVGG	51%	5%	41%	39%
Nanobody or Nanobody construct of SEQ ID NO: 83 (VHH) VHH: EVQLVESGGGLVQPGGSLRLSCAASRSIGRLDRMGWYRHRPGEPRELVATITGGSSINYGDSVKGRFTISIDNSKNTVYLQMNSLRPEDAAVYYCNFNKYVTSRDTWGQGTLVTVSS	56%	73%	79%	61%
Nanobody or Nanobody construct of SEQ ID NO: 82 (VHH) VHH: EVQLVESGGGLVQPGGSLRLSCAASRSIGRLDRMGWYRHRPGEPRELVATITGGSSINYGDSVKGRFTISIDNSKNTVYLQMNSLRAEDTAVYYCNFNKYVTSRDTWGQGTLVTVSS	96%	80%	56%	100%
Nanobody or Nanobody construct of SEQ ID NO: 65 (VHH) VHH: EVQLVESGGGLVQAGGSLRLSCAASRSIGRLDRMGWYRHRPGEPRELVATITGGSSINYGDSVKGRFTISIDNSKNTVYLQMNSLRPEDTAVYYCNFNKYVTSRDTWGQGTLVTVSS	73%	121%	23%	64%
Nanobody or Nanobody construct of SEQ ID NO: 70 (VHH) VHH: EVQLVESGGGLVQPGGSLRLSCAASRSIGRLDRMGWYRHRPGEPRELVATITGGSSINYGDSVKGRFTISIDNSKNTVYLQMNSLRPEDTAVYYCNFNKYVTSRDTWGQGTLVQVSS	90%	105%	106%	98%
Nanobody or Nanobody construct of SEQ ID NO: 81 (VHH) VHH: EVQLVESGGGVVQPGGSLRLSCAASRSIGRLDRMGWYRHRPGEPRELVATITGGSSINYGDSVKGRFTISIDNSKNTVYLQMNSLRPEDTAVYYCNFNKYVTSRDTWGQGTLVTVSS	94%	50%	75%	89%
Nanobody or Nanobody construct of SEQ ID NO: 47 (VHH) VHH: EVQLVESGGGLVQPGGSLRLSCAASGSVFKINVMAWYRQAPGKGRELVAGIISGGSTSYADSVKGRFTISRDNAKNTLYLQMNSLRPEDTAVYYCAFITTESDYDLGRRYWGQGTLVTVSS	1%	–	4%	–

Other lines, results leading:

binding as % of Reference Sequence (=100%) [1]	binding as % of Reference Sequence (=100%) [2]	binding as % of Reference Sequence (=100%) [3]	binding as % of Reference Sequence (=100%) [4]	Binder
1%	4%	–	–	Nanobody or Nanobody construct of SEQ ID NO: 42 (VHH) EVQLVESGGGLVQPGGSLRLSCAASGRTFSYNPMGWFRQAPGKGRELVAAISRTGGSTYYPDSVEGRFTISRDNAKRMVYLQMNSLRAEDTAVYYCAAAGVRAEDGRVRTLPSEYTFWGQGTQVTVSSAAAEVQLVESGGGLVQPGGSLRLSCAASGRTFSYNPMGWFRQAPGKGRELVAAISRTGGSTYYPDSVEGRFTISRDNAKRMVYLQMNSLRAEDTAVYYCAAAGVRAEDGRVRTLPSEYTFWGQGTQVTVSSA
3%	20%	3%	–	Nanobody or Nanobody construct of SEQ ID NO: 43 (VHH) DVQLVESGGGLVQPGGSLRLSCAASGFILDYYAIGWFRQAPGKEREGVLCIDASDDITYYADSVKGRFTISRDNSKNTVYLQMNSLRPEDTAVYYCATPIGLSSSCLLEYDYDYWGQGTLVTVSSGGGGSGGGSEVQLLESGGGLVQPGGSLRLSCAASGFTFRSFGMSWVRQAPGKGPEWVSSISGSGSDTLYADSVKGRFTISRDNSKNTLYLQMNSLRPEDTAVYYCTIGGSLSRSSQGTLVTVSSA
38%	115%	26%	49%	Nanobody or Nanobody construct of SEQ ID NO: 68 (VHH) VHH: EVQLVESGGGLVQAGGSLRLSCAASRSIGRLDRMGWYRHRPGEPRELVATITGGSSINYGDSVKGRFTISIDNSKNTVYLQMNSLRPEDTAVYYCNFNKYVTSRDTWGQGTQVTVSS
88%	105%	44%	87%	Nanobody or Nanobody construct of SEQ ID NO: 71 (VHH) VHH: EVQLVESGGGLVQPGGSLRLSCAASRSIGRLDRMGWYRHRPGEPRELVATITGGSSINYGDSVKGRFTISIDNSKNTVYLQMNSLRPEDTAVYYCNFNKYVTSRDTWGQGTLVTVSG
81%	29%	48%	84%	Nanobody or Nanobody construct of SEQ ID NO: 66 (VHH) VHH: EVQLVESGGGSVQPGGSLRLSCAASRSIGRLDRMGWYRHRPGEPRELVATITGGSSINYGDSVKGRFTISIDNSKNTVYLQMNSLRPEDTAVYYCNFNKYVTSRDTWGQGTLVTVSS
96%	96%	1%	100%	Nanobody or Nanobody construct of SEQ ID NO: 78 (VHH) VHH: EVQLVESGGGLVRPGGSLRLSCAASRSIGRLDRMGWYRHRPGEPRELVATITGGSSINYGDSVKGRFTISIDNSKNTVYLQMNSLRPEDTAVYYCNFNKYVTSRDTWGQGTLVTVSS
84%	50%	91%	83%	Nanobody or Nanobody construct of SEQ ID NO: 84 (VHH) VHH: EVQLVESGGGLVQPGGSLRLSCAASRSIGRLDRMGWYRHRPGEPRELVATITGGSSINYGDSVKGRFTISIDNSKNTVYLQMNSLRPEDTAVYYCNFNKYVTSRDTWGQGTLVTVGS
65%	5%	51%	58%	Nanobody or Nanobody construct of SEQ ID NO: 80 (VHH) VHH: EVQLVESGGGLVQPGGSLRLSCAASRSIGRLDRMGWYRHRPGEPRELVATITGGSSINYGDSVKGRFTISIDNSKNTVYLQMNSLRPEDTAVYYCNFNKYVTSRDTWGQGTLVQVGG
80%	120%	106%	84%	Nanobody or Nanobody construct of SEQ ID NO: 69 (VHH) VHH: EVQLVESGGGLVQPGGSLRLSCAASRSIGRLDRMGWYRHRPGEPRELVATITGGSSINYGDSVKGRFTISIDNSKNTVYLQMNSLRPEDTAVYYCNFNKYVTSRDTWGQGTQVTVSS
0%	–	3%	–	Nanobody or Nanobody construct of SEQ ID NO: 48 (VHH) VHH: EVQLVESGGGLVQPGGSLRLSCIASGLPFSTKSMGWFRQAPGKEREFVARISPGGTSRYYGDFVKGRFAISRDNAKNTTWLQMNSLKAEDTAVYYCASGERSTYIGSNYYRTNEYDYWGTGTQVTVSS
46%	5%	32%	42%	Nanobody or Nanobody construct of SEQ ID NO: 85 (VHH) VHH: EVQLVESGGGSVQPGGSLRLSCAASRSIGRLDRMGWYRHRPGEPRELVATITGGSSINYGDSVKGRFTISIDNSKNTVYLQMNSLRPEDTAVYYCNFNKYVTSRDTWGQGTLVQVGG
9%	25%	–	7%	Nanobody or Nanobody construct of SEQ ID NO: 38 (VHH) EVQLVESGGGLVQPGGSLRLSCAASGFTFSSYAMSWVRQAPGKGLEWVSGIKSSGDSTRYAGSVKGRFTISRDNAKNTLYLQMNSLRPEDTAVYYCAKSRVSRTGLYTYDNRGQGTLVTVSSGGGGSGGGGSGGGGSGGGGSEVQLVESGGGLVQPGGSLRLSCAASGRTFNNYAMGWFRQAPGKEREFVAAITRSGVRSGVSAIYGDSVKDRFTISRDNAKNTLYLQMNSLRPEDTAVYYCAASAIGSGALRRFEYDYSGQGTLVTVSSA
